Assay results from patent US7528226B2, “TGFβ1-inhibitor peptides” (Rojecto de Biomedicina Cima S.L., priority 1998, dated 2009).
No end group written: not given here.

Columns and labels:
[1] = target: T1, TGFβ1 (Homo sapiens, UniProt P01137); type: cell-based; settings: TGFβ1 200 pg/ml; for inhibitory activity of TGFβ1 (in words): peptide 200 μg/ml, MV-1-Lu cells; for Bioassay (% inhibition): inhibition of TGFβ1 activity, growth of MV-1-Lu cells, peptide concentration 200 μg/ml
T1 construct: the mature TGFβ1 is released by another cut; purchased R&D Systems Europe Ltd., Abingdon, UK
Procedure: A line derived from mink pulmonary epithelium, MV-1-Lu, was used (CCL-64, American Type Cell Culture, Virginia, USA). The cells were grown in 162 cm^2 culture flasks (Costar Corporation, Cambridge, USA) in a stove at 37° C. and 5% CO2, until subconfluence was attained. A complete medium was used: RPMI 1640 with L-glutamine (GibcoBRL, Life Technologies Ltd., Paisley, Scotland) supplemented with 5% of foetal calf serum (FCS, Biological Industries, Kibbutz Beit Haemek, Israel), 10 mM HEPES (1M HEPES Buffer, Bio-Whittaker, Verviers, Belgium) and antibiotics (100 U/ml penicillin and 100 μ/ml streptomycin).
The MV-1-Lu cells grown as indicated above were removed from the bottom of the culture flasks using 5 ml of trypsin-EDTA (Biological Industries, Kibbutz Beit Haemek, Israel), resuspended in complete medium and centrifuged at 1500 rev/min for 8 minutes. After centrifugation the cells were resuspended in complete medium to a concentration of 50,000 cells/ml. For conducting the test, 10 ml of the cell suspension were taken and dispensed in 96-well, flat-bottom culture plates (Costar Corporation, Cambridge, USA), adding 100 μl/well, and were incubated overnight at 37° C. and 5% CO2, which permits adhesion of the cells to the bottom of the wells. […] The final concentration of FCS in the well was 2.5%. After 24 hours of incubation, 1 μCi of tritiated thymidine was added per well (25 Ci/mmol [methyl-^3H]-thymidine, Amersham Life Science, Buckinghamshire, UK) with incubation for a further 12 hours (Grubeck-Loebenstein B. et al. (1989) J. Clin. Invest. 83:764-770; Brennan F M et al. (1990) Clin. Exp. Immunol. 81:278-285).
At the end of the incubation periods the cells were removed from the bottom of the wells with trypsin-EDTA and were collected using a manual harvester (Titertek cell harvester, Skatron Instruments Inc., Sterling, USA) which ruptures the cells, collecting the DNA in nitrocellulose filters (Filter MAT 11731, Skatron Instruments Inc., Sterling, USA) where it is fixed. The filters were placed individually in 5 ml polypropylene tubes to which 4 ml of scintillation fluid was added (Biogreen-11, Reactivos Scharlau S. A., Barcelona, Spain). The activity of each tube was quantified for 90 seconds in a β LKB scintillation counter (Beta plate system, LKB, Uppsala, Sweden).
TGFβ1 is a cytokine that is able to inhibit the growth in vitro of the MV-1-Lu cell line (Grubeck-Loebenstein B. et al. (1989) J. Clin. Invest. 83:764-770; Brennan F M et al. (1990) Clin. Exp. Immunol. 81:278-285), therefore this line was used for testing the blocking effect of peptides on TGFβ1. After different combinations of media, cells and thymidine, we studied the effect of different concentrations of TGFβ1 on incorporation of [methyl-^3H]thymidine by MV-1-Lu cells in culture, for determining the most suitable conditions for the test. […]
(§1) The synthetic peptides that are potentially inhibitors of TGFβ1 activity, selected as indicated above in the section: selection of the peptides to be synthesized (both those derived from proteins that bind to TGFβ1 itself) were tested using the MV-1-Lu cell line. The selected peptides are soluble in buffered RPMI medium. The peptides were dissolved in buffered RPMI medium, free from foetal calf serum, and the following was used.
The peptides belonging to the sequence of the receptor, or complementary to the peaks of hydrophilicity of TGFβ1, were incubated for 30 minutes in the presence of this cytokine and were then combined with the cell culture. The peptides derived from the sequence of TGFβ1 were added to the cell culture prior to addition of TGFβ1, since they interact with the receptors of the cell surface. These incubations were effected in 100 μl of the same medium as was used for adding the cells. The active peptides permitted cell growth to a greater or lesser degree depending on its ability to inhibit TGFβ1.

[2] = system: TGFβ1 cell receptors; parameters: species or system human; settings: inhibition of binding of TGFβ1 to its cell receptors, MV-1-Lu cells; peptide concentration 420 μg/ml
Description: An immunofluorescence kit was used for this (Fluorokine rh TGFβ-biotin, R&D Systems Europe Ltd., Abingdon, UK). This test is based on the capacity of biotinylated TGFβ1 to bind to the cell receptors, in a specific manner, and the subsequent interaction of the biotin with fluorescein-labelled avidin, so that the signal intensity will depend on the quantity of TGFβ1 bound to the cell receptors.
The MV-1-Lu cells grown in 162 cm^2 flasks were removed using solution 1 (described previously) and were resuspended in physiological saline for centrifugation at 500×g for 5 minutes. After centrifugation, the cells were resuspended again in physiological saline at a concentration of 4×10^6 cells/ml. 25 μl of the cell suspension was added to 12×75 mm borosilicate tubes, to which was added the peptide to be tested in 40 μl of RPMI 1640 medium, giving a final concentration of 0.42 μg/μl and 10 μl of biotinylated TGFβ1. […]
At the end of the incubation period, 10 μl of fluorescein-labelled avidin was added, incubating for 30 minutes at 4° C. in darkness, after which 2 ml of a washing solution (RDF1) was added, followed by centrifugation at 500×g for 6 minutes. […] This method permits measurement of the fluorescence emitted by each cell when a laser beam is incident upon it, by means of a computer program (Lisys™ II, Becton Dickinson Immunocytometry Systems, California, USA).
Once the fields had been delimited, the percentage of cells located in each of them was calculated. […]
Peptides derived from previous syntheses, both those that were synthesized from the sequence of TGFβ1 and those from the type III receptor, were used for measuring, by flow cytometry, their capacity to inhibit the binding of TGFβ1 to the cell receptors. In these tests the cells are incubated with the peptide before adding TGFβ1-biotin, which will be detected using avidin-FITC (Material and Methods). Then the fluorescence emitted by the avidin-FITC is measured: this will be directly proportional to the quantity of TGFβ1 bound to the cells and inversely proportional to the activity of the peptide.

[3] = Solubility of the peptides in the test medium; type: physicochemical
Procedure: as §1
The effect of the concentration of peptide P12 on inhibition of the activity of TGFβ1 was investigated.
The effect of the concentration of peptide P54 on inhibition of the activity of TGFβ1 was investigated.

T1 sequence (P01137 279-390): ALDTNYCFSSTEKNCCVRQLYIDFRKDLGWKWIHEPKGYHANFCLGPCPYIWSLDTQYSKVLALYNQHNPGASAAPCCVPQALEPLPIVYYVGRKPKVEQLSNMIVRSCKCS

Substance | inhibitory activity of TGFβ1 (in words) [1] | Cytometry (% inhibition) [2] | Bioassay (% inhibition) [1] | dependence of the inhibitory activity on the peptide concentration ([1]; dose-response test) | inhibitory activity of nominal concentrations of peptide, before and after filtration ([1]; dose-response test, filtered vs unfiltered stock) | solubility in the test medium [3]
CDIHVLKQDGFSVLFTKCD (cysteine pairing not given here) [P149] | not found to be active | – | – | – | – | –
CysValAlaValTrpArgLysAsnAspGluAsnIleThrLeuGluThrValCys (CVAVWRKNDENITLETVC; Synthetic peptide from rat TGB beta 1 type III receptor, position 84-101) [P146] | not found to be active | – | – | – | – | –
HANFCLGPCPYIWSL (cysteine pairing not given here) [P11] | – | 86% | 40% | – | – | –
LYNQHNPGASAAPCC (cysteine pairing not given here) [P18] | – | 6.5% | 18.2% | – | – | –
SNPYSAFQVDIIVDI [P106, SerAsnProTyrSerAlaPheGlnValAspIleIleValAspIle] | had also demonstrated activity | – | – | – | – | –
TSLDATMIWTMM [P54] | capable of inhibiting the activity of TGFβ1 almost completely | 82.3% | 97% | inhibit the activity of TGFβ1 in a manner that depends on the dose used | no measurable inhibitory activity in the filtrate | low solubility
